# Patent US20100119478A1 (PROBIODRUG, published 2010)
# T1: 07 AQPDAVNAPL
# T1 construct: member of group m23; also called PepSpot spot 07
# T1 peptide: AQPDAVNAPL
# T2: 09 DAVNAPL
# T2 construct: member of group m23; also called PepSpot spot 09
# T2 peptide: DAVNAPL
# T3: 16 LAQDALNVPST
# T3 construct: member of group m23; also called PepSpot spot 16
# T3 peptide: LAQDALNVPST
# T4: 11 EKLTGPDKAVT
# T4 construct: member of group m23; also called PepSpot spot 11
# T4 peptide: EKLTGPDKAVT
# B1: monoclonal antibody 348-2C9 (antibody, V domains shown)
# VH: EVQLQQSGPELVKPGASVKMSCKASGYTFTDYYMDWVKQSHGESFECIGRVNPYNGGTSYNQKFKGKATLTVDKSSSTAYMELNSLTSEDSAVYYCARLGSSYRWGQGTTLTVSS
# VL: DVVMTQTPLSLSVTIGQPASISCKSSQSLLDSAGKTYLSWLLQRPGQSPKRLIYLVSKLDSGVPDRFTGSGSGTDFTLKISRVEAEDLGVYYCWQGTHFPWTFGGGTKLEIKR
# notes: Mouse IgG2b from hybridoma, Protein-G purified; also called Clone 2C9; DSM ACC 2906
# B2: monoclonal antibody 348-1D4 (antibody, V domains shown)
# VH: B1 VH
# VL: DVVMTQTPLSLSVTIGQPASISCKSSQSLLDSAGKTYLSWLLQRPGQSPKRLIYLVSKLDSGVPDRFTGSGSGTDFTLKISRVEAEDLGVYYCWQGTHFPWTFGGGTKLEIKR
# notes: Mouse IgG2b from hybridoma, Protein-G purified; also called Clone 1D4; DSM ACC 2905
# B3: monoclonal antibody 332-4B8 (antibody, V domains shown)
# VH: EVQLQQSGPELEKPGASVKISCKASGYSFTGYNMNWVKQNNGKSLEWIGNITPYYGSTSYNQKFKGRVTLTVDKSSSTAYMQLKSLTSEDSAVYFCLLWLRRGDYAMDYWGQGTSVTVSS
# VL: DVLMTQTPLSLPVSLGDQASISCKSSQSIVHSNGNTYLEWYLQKPGQSPKLLIYKVFNRFSGVPDRFSGSGSGTDFTLKISRVEAEDLGVYYCFQGSHVPYTFGGGTKLEIKR
# notes: Mouse IgG1 from hybridoma, Protein-G purified; also called Clone 4B8; 322-4B8
# What was measured:
# Assay in all cases: PepSpot membrane, peptide 1 µg/spot, antibody 1 µg/ml, AP-conjugated anti-mouse detection
# 07 AQPDAVNAPL = molecular target: T1, 07 AQPDAVNAPL
# Experimental: (§1) Corresponding PepSpot membranes were prepared by JPT Peptide Technologies GmbH, Berlin (JPT). On these membranes, peptides with the indicated amino acid sequences (see FIG. 3; Z represents pE) were immobilized at a concentration of 1 μg/spot.
# (§2) For analysis, membranes were blocked for two hours with TBST-M (=TBST+5% skimmed milk) at room temperature with gentle shaking. Membranes were incubated over night at 4° C. on a rocking platform with the individual MCP-1 N1pE antibody clones diluted to 1 μg/ml in equal volumes of TBST-M. Secondary anti-mouse antibody conjugated with alkaline phosphatase was used for signal detection, following standard procedures.
# 09 DAVNAPL = molecular target: T2, 09 DAVNAPL
# Experimental: as §1, §2
# 16 LAQDALNVPST = molecular target: T3, 16 LAQDALNVPST
# Experimental: as §1, §2
# 11 EKLTGPDKAVT = molecular target: T4, 11 EKLTGPDKAVT
# Experimental: as §1, §2
Binder,binding result (07 AQPDAVNAPL),binding result (09 DAVNAPL),binding result (16 LAQDALNVPST),binding result (11 EKLTGPDKAVT)
B1,no binding (tested: 1 µg peptide per spot),no binding (tested: 1 µg peptide per spot),no binding (tested: 1 µg peptide per spot),no binding (tested: 1 µg peptide per spot)
B2,no binding (tested: 1 µg peptide per spot),no binding (tested: 1 µg peptide per spot),no binding (tested: 1 µg peptide per spot),no binding (tested: 1 µg peptide per spot)
B3,no binding (tested: 1 µg peptide per spot),no binding (tested: 1 µg peptide per spot),no binding (tested: 1 µg peptide per spot),no binding (tested: 1 µg peptide per spot)
